From the supplement of paper PMC11246515
± gives the standard deviation of the averaged measurements.

Assay: total protein half-life in vivo (active degradation + dilution); higher = more stable protein
[1] = E. coli NCM3722 delta-clpP delta-lon delta-hslV, growth: N-lim chemostat, doubling time 6 h
[2] = E. coli NCM3722 delta-clpP, growth: N-lim chemostat, doubling time 6 h
[3] = E. coli NCM3722 delta-hslV, growth: N-lim chemostat, doubling time 6 h
[4] = E. coli NCM3722 delta-lon, growth: N-lim chemostat, doubling time 6 h
[5] = E. coli NCM3722 delta-smpB, growth: N-lim chemostat, doubling time 6 h
[6] = wild type E. coli NCM3722, growth: C-lim chemostat, doubling time 3 h
[7] = wild type E. coli NCM3722, growth: C-lim chemostat, doubling time 6 h
[8] = wild type E. coli NCM3722, growth: C-lim chemostat, doubling time 12 h
[9] = wild type E. coli NCM3722, growth: N-lim chemostat, doubling time 6 h
[10] = wild type E. coli NCM3722, growth: N-lim chemostat, doubling time 12 h
[11] = wild type E. coli NCM3722, growth: P-lim chemostat, doubling time 6 h
[12] = wild type E. coli NCM3722, growth: P-lim chemostat, doubling time 12 h

Sequence: MSLSLWQQCLARLQDELPATEFSMWIRPLQAELSDNTLALYAPNRFVLDWVRDKYLNNINGLLTSFCGADAPQLRFEVGTKPVTQTPQAAVTSNVAAPAQVAQTQPQRAAPSTRSGWDNVPAPAEPTYRSNVNVKHTFDNFVEGKSNQLARAAARQVADNPGGAYNPLFLYGGTGLGKTHLLHAVGNGIMARKPNAKVVYMHSERFVQDMVKALQNNAIEEFKRYYRSVDALLIDDIQFFANKERSQEEFFHTFNALLEGNQQIILTSDRYPKEINGVEDRLKSRFGWGLTVAIEPPELETRVAILMKKADENDIRLPGEVAFFIAKRLRSNVRELEGALNRVIANANFTGRAITIDFVREALRDLLALQEKLVTIDNIQKTVAEYYKIKVADLLSKRRSRSVARPRQMAMALAKELTNHSLPEIGDAFGGRDHTTVLHACRKIEQLREESHDIKEDFSNLIRTLSS
- total protein half-life in vivo [1]: 5.49 ± 0.27 h
- total protein half-life in vivo [2]: 4.24 ± 0.24 h
- total protein half-life in vivo [3]: 2.83 ± 0.047 h
- total protein half-life in vivo [4]: 3.85 ± 0.16 h
- total protein half-life in vivo [5]: 2.8675 ± 0.00078 h
- total protein half-life in vivo [6]: 2.183 ± 0.021 h
- total protein half-life in vivo [7]: 3.897 ± 0.019 h
- total protein half-life in vivo [8]: 5.25 ± 0.15 h
- total protein half-life in vivo [9]: 2.94 ± 0.26 h
- total protein half-life in vivo [10]: 3.79 ± 0.058 h
- total protein half-life in vivo [11]: 3.61 ± 0.12 h
- total protein half-life in vivo [12]: 6.1 ± 0.38 h

Sequence: MFRPFLNSLMLGSLFFPFIAIAGSTVQGGVIHFYGQIVEPACDVSTQSSPVEMNCPQNGSIPGKTYSSKALMSGNVKNAQIASVKVQYLDKQKKLAVMNIEYN
- total protein half-life in vivo [6]: 0.288 h
- total protein half-life in vivo [7]: 0.225 h

Sequence: MYVAVKGGEKAIDAAHALQESRRRGDTDLPELSVAQIEQQLNLAVDRVMTEGGIADRELAALALKQASGDNVEAIFLLRAYRTTLAKLAVSEPLDTTGMRLERRISAVYKDIPGGQLLGPTYDYTHRLLDFTLLANGEAPTLTTADSEQQPSPHVFSLLARQGLAKFEEDSGAQPDDITRTPPVYPCSRSSRLQQLMRGDEGYLLALAYSTQRGYGRNHPFAGEIRSGYIDVSIVPEELGFAVNVGELLMTECEMVNGFIDPPGEPPHFTRGYGLVFGMSERKAMAMALVDRALQAPEYGEHATGPAQDEEFVLAHADNVEAAGFVSHLKLPHYVDFQAELELLKRLQQEQNHG
- total protein half-life in vivo [11]: 0.609 ± 0.46 h
- total protein half-life in vivo [12]: 1.36 ± 0.41 h

Sequence: MMSGEHTLKAVRGSFIDVTRTIDNPEEIASALRFIEDGLLLIKQGKVEWFGEWENGKHQIPDTIRVRDYRGKLIVPGFVDTHIHYPQSEMVGAYGEQLLEWLNKHTFPTERRYEDLEYAREMSAFFIKQLLRNGTTTALVFGTVHPQSVDALFEAASHINMRMIAGKVMMDRNAPDYLLDTAESSYHQSKELIERWHKNGRLLYAITPRFAPTSSPEQMAMAQRLKEEYPDTWVHTHLCENKDEIAWVKSLYPDHDGYLDVYHQYGLTGKNCVFAHCVHLEEKEWDRLSETKSSIAFCPTSNLYLGSGLFNLKKAWQKKVKVGMGTDIGAGTTFNMLQTLNEAYKVLQLQGYRLSAYEAFYLATLGGAKSLGLDDLIGNFLPGKEADFVVMEPTATPLQQLRYDNSVSLVDKLFVMMTLGDDRSIYRTYVDGRLVYERN
- total protein half-life in vivo [1]: 5.05 ± 0.34 h
- total protein half-life in vivo [2]: 3.95 ± 0.22 h
- total protein half-life in vivo [3]: 4.26 ± 0.28 h
- total protein half-life in vivo [4]: 4.12 ± 0.085 h
- total protein half-life in vivo [5]: 3.79 ± 0.042 h
- total protein half-life in vivo [6]: 3.26 ± 0.59 h
- total protein half-life in vivo [7]: 6.35 ± 1.1 h
- total protein half-life in vivo [8]: 10.2 ± 0.27 h
- total protein half-life in vivo [9]: 3.78 ± 0.16 h
- total protein half-life in vivo [10]: 7.14 ± 1.4 h
- total protein half-life in vivo [11]: 5.87 h

Sequence: MEWIADPSIWAGLITLIVIELVLGIDNLVFIAILAEKLPPKQRDRARVTGLLLAMLMRLLLLASISWLVTLTQPLFSFRSFTFSARDLIMLFGGFFLLFKATMELNERLEGKDSNNPTQRKGAKFWGVVTQIVVLDAIFSLDSVITAVGMVDHLLVMMAAVVIAISLMLMASKPLTQFVNSHPTIVILCLSFLLMIGFSLVAEGFGFVIPKGYLYAAIGFSVMIEALNQLAIFNRRRFLSANQTLRQRTTEAVMRLLSGQKEDAELDAETASMLVDHGNQQIFNPQERRMIERVLNLNQRTVSSIMTSRHDIEHIDLNAPEEEIRQLLERNQHTRLVVTDGDDAEDLLGVVHVIDLLQQSLRGEPLNLRVLIRQPLVFPETLPLLPALEQFRNARTHFAFVVDEFGSVEGIVTLSDVTETIAGNLPNEVEEIDARHDIQKNADGSWTANGHMPLEDLVQYVPLPLDEKREYHTIAGLLMEYLQRIPKPGEEVQVGDYLLKTLQVESHRVQKVQIIPLRKDGEMEYEV
- total protein half-life in vivo [1]: 6.68 ± 1.2 h
- total protein half-life in vivo [2]: 6.24 ± 0.2 h
- total protein half-life in vivo [3]: 6.92 ± 0.87 h
- total protein half-life in vivo [4]: 6.34 ± 0.46 h
- total protein half-life in vivo [5]: 6.27 ± 0.67 h
- total protein half-life in vivo [8]: 14.9 ± 0.52 h
- total protein half-life in vivo [9]: 6.24 ± 0.23 h
- total protein half-life in vivo [10]: 12.28 ± 0.022 h
- total protein half-life in vivo [11]: 6.598 ± 0.06 h
- total protein half-life in vivo [12]: 11.1 ± 2 h

Sequence: MSKNERMVGISRRTLVKSTAIGSLALAAGGFSLPFTLRNAAAAVQQAREKVVWGACSVNCGSRCALRLHVKDNEVTWVETDNTGSDEYGNHQVRACLRGRSIRRRINHPDRLNYPMKRVGKRGEGKFERISWDEALDTIASSLKKTVEQYGNEAVYIQYSSGIVGGNMTRSSPSASAVKRLMNCYGGSLNQYGSYSTAQISCAMPYTYGSNDGNSTTDIENSKLVVMFGNNPAETRMSGGGITYLLEKAREKSNAKMIVIDPRYTDTAAGREDEWLPIRPGTDAALVAGIAWVLINENLVDQPFLDKYCVGYDEKTLPADAPKNGHYKAYILGEGDDKTAKTPQWASQITGIPEDRIIKLAREIGTAKPAYICQGWGPQRQANGELTARAIAMLPILTGNVGISGGNSGARESTYTITIERLPVLDNPVKTSISCFSWTDAIDHGPQMTAIRDGVRGKDKLDVPIKFIWNYAGNTLVNQHSDINKTHEILQDESKCEMIVVIENFMTSSAKYADILLPDLMTVEQEDIIPNDYAGNMGYLIFLQPVTSEKFERKPIYWILSEVAKRLGPDVYQKFTEGRTQEQWLQHLYAKMLAKDPALPSYDELKKMGIYKRKDPNGHFVAYKAFRDDPEANPLKTPSGKIEIYSSRLAEIARTWELEKDEVISPLPVYASTFEGWNSPERRTFPLQLFGFHYKSRTHSTYGNIDLLKAACRQEVWINPIDAQKRGIANGDMVRVFNHRGEVRLPAKVTPRILPGVSAMGQGAWHEANMSGDKIDHGGCVNTLTTLRPSPLAKGNPQHTNLVEIEKI
- total protein half-life in vivo [1]: 5.78 h

Sequence: MEYRSLTLDDFLSRFQLLRPQINRETLNHRQAAVLIPIVRRPQPGLLLTQRSIHLRKHAGQVAFPGGAVDDTDASAIAAALREAEEEVAIPPSAVEVIGVLPPVDSVTGYQVTPVVGIIPPDLPYRASEDEVSAVFEMPLAQALHLGRYHPLDIYRRGDSHRVWLSWYEQYFVWGMTAGIIRELALQIGVKP
- total protein half-life in vivo [1]: 5.44 ± 0.41 h
- total protein half-life in vivo [2]: 2.96 ± 0.13 h
- total protein half-life in vivo [3]: 3.99 ± 0.25 h
- total protein half-life in vivo [4]: 4.38 ± 0.51 h
- total protein half-life in vivo [5]: 3.01 ± 0.22 h
- total protein half-life in vivo [6]: 2.36 ± 0.8 h
- total protein half-life in vivo [7]: 5.03 ± 0.89 h
- total protein half-life in vivo [8]: 7.74 ± 0.73 h
- total protein half-life in vivo [9]: 4 ± 0.21 h
- total protein half-life in vivo [10]: 6.98 ± 0.38 h
- total protein half-life in vivo [11]: 4.45 ± 0.2 h
- total protein half-life in vivo [12]: 8.18 ± 0.56 h

Sequence: MTKIIAVTACPSGVAHTYMAAEALESAAKAKGWEVKVETQGSIGLENELTAEDVASADMVILTKDIGIKFEERFAGKTIVRVNISDAVKRADAIMSKIEAHLAQTA
- total protein half-life in vivo [1]: 4.85 ± 0.3 h
- total protein half-life in vivo [2]: 5.65 h
- total protein half-life in vivo [8]: 8.01 ± 8.9 h
